Assay results from article PMC2193694 (The Journal of Experimental Medicine, 2002).
Residue numbers refer to the chain shown, from its start. In names and notes the source's numbering stands.

T1: B7-H2mIg (extracellular domain of human B7-H2 linked to mouse IgG2a Fc portion) (human, UniProt O75144 19-256)
T1 sequence: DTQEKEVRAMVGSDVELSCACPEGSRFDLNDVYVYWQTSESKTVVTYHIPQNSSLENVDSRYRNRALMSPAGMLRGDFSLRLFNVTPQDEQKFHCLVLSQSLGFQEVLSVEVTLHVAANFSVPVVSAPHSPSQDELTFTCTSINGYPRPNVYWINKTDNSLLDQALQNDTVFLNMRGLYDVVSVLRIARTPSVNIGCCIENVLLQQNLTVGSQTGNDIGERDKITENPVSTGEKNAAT

B1: ICOSIg (extracellular domain of human ICOS fused to the CH2-CH3 portion of human IgG1) (Fc fusion)
chain: EINGSANYEMFIFHNGGVQILCKYPDIVQQFKMQLLKGGQILCDLTKTKGSGNTVSIKSLKFCHSQLSNNSVSFFLYNLDHSHANYYFCNLSIFDPPPFKVTLTGGYLHIYESQLCCQLK
B2: ICOSIg homologue replacement mutant RP49-52 (ICOS 49-52 replaced by CD28 49-52) (Fc fusion)
chain: B1 chain with Q29R, Q30E, K32R
B3: ICOSIg mutant F51S (Fc fusion)
chain: B1 chain with F31S
B4: ICOSIg mutant D115S (Fc fusion)
chain: B1 chain with D95S
B5: ICOSIg mutant K67S (Fc fusion)
chain: B1 chain with K47S
B6: ICOSIg mutant K69S (Fc fusion)
chain: B1 chain with K49S
B7: ICOSIg mutant F114S (Fc fusion)
chain: B1 chain with F94S
B8: ICOSIg mutant Q50S (Fc fusion)
chain: B1 chain with Q30S
B9: ICOSIg mutant Q49S (Fc fusion)
chain: B1 chain with Q29S
B10: ICOSIg mutant F119S (Fc fusion)
chain: B1 chain with F99S
B11: ICOSIg mutant D64S (Fc fusion)
chain: B1 chain with D44S

Experiments:
[1] = target: B7-H2mIg (extracellular domain of human B7-H2 linked to mouse IgG2a Fc portion) (human) (UniProt O75144); assay: ELISA
[2] = target: T1, B7-H2mIg (extracellular domain of human …); assay: ELISA

| Molecule | percentage of B7-H2 binding activity (of ICOSIg) [1] [%] | percentage of B7-H2 binding activity (of ICOSIg) [2] [%] |
| --- | --- | --- |
| ICOSIg mutant P117S (from UniProt Q9Y6W8 21-140) (Fc fusion) | < 0.1 |  |
| B1 |  | 100 |
| B2 |  | 9 |
| B3 |  | < 0.1 |
| B4 |  | < 0.1 |
| B5 |  | < 0.1 |
| B6 |  | 3 |
| B7 |  | < 0.1 |
| B8 |  | 6 |
| B9 |  | 33 |
| B10 |  | < 0.1 |
| B11 |  | 6 |
